In patent publication US6846636B1, “Methods and compositions for HDL holoparticle uptake receptor” (American National Red Cross, priority 1998, dated 2005):
“Also recorded” adds a separate entry of the source.

What was measured:
[1] = test system: RA/Bt2cAMP-treated F9 cells; assay: DiI-HDL uptake by fluorescence-activated cell (FAC) scanning; type: cell-based, mouse; conditions: DiI-HDL 1 μg/ml, 37° C.; competitors preincubated; apolipoproteins and RAP 1 μM, apoE 0.25 μM, heparin 80 μM, IgGs 200 μg/ml, heparinase I 10 U/ml
Description: Untreated and RA/Bt2cAMP-treated F9 cells (1-1.5×10^5 cells/cm^2) were grown for 18 hours in serum-free medium (DMEM, ITS, penicillin, and streptomycin). After washing the cell layers with the same serum-free medium, apoE-free DiI-HDL was added to a final concentration of 1 μg/ml and incubated for 1-2 hours at 37° C., 5% CO2. For competition experiments, competitors were added in serum-free medium and incubated for 0.5 hours at 37° C., 5% CO2 prior to the addition of the DiI-HDL. After the incubation, the medium was removed, cell layers washed with serum-free medium and the cells released with a 0.5 mg/ml trypsin-0.53 mM EDTA solution (Mediatech). The cells were then pelleted by centrifugation at 180×g and resuspended in DMEM. Twice more, the cells were pelleted by centrifugation at 180×g, and resuspended in dPBS. The cells were then subjected to FAC sorting on a FACStarplus instrument (Becton Dickinson, San Jose, Calif.).
RA/Bt2cAMP-treated and -untreated F9 cells (1-1.5×10^5 cclls/cm^2) were grown for 18 h in SFM. After washing the cell layers with SFM, DiI-HDL or DIO-LDL was added to a final concentration of 1 μg/ml and incubated for 2 h at 37° C., 5% CO2. For competition experiments, competitors (HDL, HDL2, HDL3 and their corresponding apoE-free forms), LDL, oxidized LDL, VLDL, §-VLDL, Lp(a) ([…]), apoA-I (28.3 μg/ml, 1 μM), apoA-II (I 7.3 μg/ml, 1 μM), apoC-I (6.6 μg/ml, 1 μM), apoC-III (8.8 μg/ml, 1 μM), apoJ (70 μg/ml, 1 μM), ovalbumin (45 μg/ml, 1 μM), RAP (39 μg/ml, 1 μM), apoE (8.5 μg/ml, 0.25 μM), heparin (80 μM, 250 U/ml) or IgGs (200 μg/ml) were added in SFM and incubated for 45 min at 37° C., 5% CO2 prior to the addition of the fluorescent lipoproteins. After the incubation, the medium was removed, cell layers were washed with SFM and the cells were released with trypsin-EDTA-proteinase K. The cells were washed once with DMEM, twice with dPBS, then subjected to FAC scanning on a FACStar Plus instrument (Becton Dickinson, San Jose, Calif.). Plotted data are from gated cells having fluorescence intensity values greater than the autofluorescence values of 99% of unlabeled cells. For some experiments, cell layers were treated with hepaninase I (10 U/ml) for 2 h prior to the addition of the DiI-HDL.

[2] = test system: visceral yolk sac endoderm; assay: DiI-HDL uptake by mouse embryo yolk sac (ex utero culture, confocal microscopy); conditions: ± S.D.; DiI-HDL 1 μg/ml 1 h; RAP, ovalbumin 1 μM; IgGs 400 μg/ml; p<0.01 vs control
Description: Embryos (8-8.5 days post-conception) were removed from timed pregnant ICR mice (Harlan Sprague Dawley, Inc.) so as to leave visceral yolk sac endoderm intact and placed in DMEM. The embryos were then incubated in DMEM containing RAP (1 μM), ovalbumin (1 μM), rabbit anti-cubilin IgG (400 μg/ml) or normal rabbit IgG (400 μg/ml) for 0.5 h at 37° C., 5% CO2. DiI-HDL was added to a final concentration of (1 μg/ml) and incubated for 1 h at 37° C., 5% CO2. The medium was removed and the embryos gently washed with dPBS and fixed with 3% paraformaldehyde for 15 min. The fixed embryos were placed in dPBS, 0.1% azide in a well slide and examined by laser scanning confocal microscopy. The intensity of yolk sac fluorescence in mouse embryos incubated with DiI-HDL in the presence of either RAP, ovalbumin, anti-cubilin IgG or control IgG was evaluated by seven people in a double blinded fashion. The assessments of relative intensity were analyzed by a nonparametric statistical test using RANK and ANOVA procedures (SAS Institute, Inc., Cary, N.C.).

B1: RAP: 39 kDa chaperone protein that inhibits ligand binding to LDLR family members; recombinant human RAP (protein, UniProt P30533 35-357, looked up)
Alpha-2-macroglobulin …: YSREKNQPKPSPKRESGEEFRMEKLNQLWEKAQRLHLPPVRLAELHADLKIQERDELAWKKLKLDGLDEDGEKEARLIRNLNVILAKYGLDGKKDARQVTSNSLSGTQEDGLDDPRLEKLWHKAKTSGKFSGEELDKLWREFLHHKEKVHEYNVLLETLSRTEEIHENVISPSDLSDIKGSVLHSRHTELKEKLRSINQGLDRLRRVSHQGYSTEAEFEEPRVIDLWDLAQSANLTDKELEAFREELKHFEAKIEKHNHYQKQLEIAHEKLRHAESVGDGERVSRSREKHALLEGRTKELGYTVKKHLQDLSGRISRARHNEL
Question: For B1, which “DiI-HDL uptake in presence of competitor” value [1] is on record?
Answer: could be blocked; also recorded: completely blocked

Question: And the “fluorescence intensity RANK score of DiI-HDL incorporation into extraembryonic endoderm” value [2]?
Answer: 9.77±0.22
